# Laboratory results as given in the supplement of paper PMC10567573.
# B1: RAB11A (parent)
# chain: AVPTDEARAFAEKNGLSFIETSAL
# B2: KRT71 (parent)
# chain: ELRNVQDVVEDYKKRYEEEINKRT
# Variants of: B1
# Experiment: protein stability index of a GFP-peptide fusion (GPS, HEK-293T) (PSI 1-6); higher = more stable
# Conditions: c terminus: a fixed tail appended
# 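Note: lentivirally expressed fusions sorted by FACS into six bins by GFP to DsRed ratio, PSI derived from sequencing read proportions per bin multiplied by bin number.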
row,Variant,protein stability index
1,AVPTDEARAFAEKNGLSFIETSQL,2.52
2,AVPTDEARAFAEKNGLSFIETSNL,2.87
3,AVPTDEARAFAEKNGLSFIETSKL,2.42
4,AVPTDEARAFAEKNGLSFIETSDL,4.18
5,AVPTDEARAFAEKNGLSFIETSTL,2.08
6,AVPTDEARAFAEKNGLSFIETSRL,2.04
7,AVPTDEARAFAEKNGLSFIETSPL,2.82
8,AVPTDEARAFAEKNGLSFIETSSL,2.79
9,AVPTDEARAFAEKNGLSFIETSYL,1.81
10,AVPTDEARAFAEKNGLSFIETSGL,3.49
11,AVPTDEARAFAEKNGLSFIETSML,1.81
12,AVPTDEARAFAEKNGLSFIETSLL,1.9
13,AVPTDEARAFAEKNGLSFIETSWL,1.55
14,AVPTDEARAFAEKNGLSFIETSCL,2.08
15,AVPTDEARAFAEKNGLSFIETSFL,1.66
16,AVPTDEARAFAEKNGLSFIETSIL,1.65
17,AVPTDEARAFAEKNGLSFIETSHL,2.04
18,AVPTDEARAFAEKNGLSFIETSVL,2.12
19,AVPTDEARAFAEKNGLSFIETSEL,3.68
20,AVPTDEARAFAEKNGLSFIETHAL,2.22
21,AVPTDEARAFAEKNGLSFIETNAL,3.38

row,Variant,protein stability index
1,AVPTDEARAFAEKNGLSFIETYAL,2.08
2,AVPTDEARAFAEKNGLSFIETVAL,2.64
3,AVPTDEARAFAEKNGLSFIETLAL,2.5
4,AVPTDEARAFAEKNGLSFIETAAL,2.35
5,AVPTDEARAFAEKNGLSFIETTAL,2.49
6,AVPTDEARAFAEKNGLSFIETCAL,2.54
7,AVPTDEARAFAEKNGLSFIETMAL,1.95
8,AVPTDEARAFAEKNGLSFIETRAL,2.25
9,AVPTDEARAFAEKNGLSFIETFAL,2.27
10,AVPTDEARAFAEKNGLSFIETQAL,3.14
11,AVPTDEARAFAEKNGLSFIETWAL,1.6
12,AVPTDEARAFAEKNGLSFIETIAL,1.76
13,AVPTDEARAFAEKNGLSFIETPAL,3.73
14,AVPTDEARAFAEKNGLSFIETEAL,4.01
15,AVPTDEARAFAEKNGLSFIETGAL,2.91
16,AVPTDEARAFAEKNGLSFIETDAL,3.84
17,AVPTDEARAFAEKNGLSFIETKAL,3.44
18,AVPTDEARAFAEKNGLSFIESSAL,3.11
19,AVPTDEARAFAEKNGLSFIEWSAL,2.39
20,AVPTDEARAFAEKNGLSFIEYSAL,1.5
21,AVPTDEARAFAEKNGLSFIEVSAL,2.12

row,Variant,protein stability index
1,AVPTDEARAFAEKNGLSFIETSAE,5.03
2,AVPTDEARAFAEKNGLSFIETSAK,3.53
3,AVPTDEARAFAEKNGLSFIETSAA,4
4,AVPTDEARAFAEKNGLSFIETSAQ,3.47
5,AVPTDEARAFAEKNGLSFIETSAR,2.63
6,AVPTDEARAFAEKNGLSFIETSAD,4.79
7,AVPTDEARAFAEKNGLSFIETSAN,4.47
8,AVPTDEARAFAEKNGLSFIETSAI,2.34
9,AVPTDEARAFAEKNGLSFIETSAP,4.62
10,AVPTDEARAFAEKNGLSFIETSAC,3.07
11,AVPTDEARAFAEKNGLSFIETSAM,3.08
12,AVPTDEARAFAEKNGLSFIETSAG,5.05
13,AVPTDEARAFAEKNGLSFIETSAW,2.72
14,AVPTDEARAFAEKNGLSFIETSAV,3.31
15,AVPTDEARAFAEKNGLSFIETSAH,4.06
16,AVPTDEARAFAEKNGLSFIETSAT,3.98
17,AVPTDEARAFAEKNGLSFIETSAS,4.39
18,AVPTDEARAFAEKNGLSFIETSAF,2.73
19,AVPTDEARAFAEKNGLSFIETSAY,3.04

# Variants of: B2
# Experiment: as above
# Conditions: c terminus: a fixed tail appended
row,Variant,protein stability index
1,ELRWVQDVVEDYKKRYEEEINKRT,3.17
2,ELREVQDVVEDYKKRYEEEINKRT,4.45
3,ELRMVQDVVEDYKKRYEEEINKRT,3.77
4,ELRAVQDVVEDYKKRYEEEINKRT,4.38
5,ELRGVQDVVEDYKKRYEEEINKRT,3.65
6,ELRHVQDVVEDYKKRYEEEINKRT,4.45
7,ELRFVQDVVEDYKKRYEEEINKRT,3.11
8,ELRKVQDVVEDYKKRYEEEINKRT,4.51
9,ELRTVQDVVEDYKKRYEEEINKRT,4.08
10,ELRPVQDVVEDYKKRYEEEINKRT,4.67
11,ELRSVQDVVEDYKKRYEEEINKRT,4.32
12,ELRCVQDVVEDYKKRYEEEINKRT,3.9
13,ELRIVQDVVEDYKKRYEEEINKRT,4.37
14,ELRYVQDVVEDYKKRYEEEINKRT,3.59
15,ELRRVQDVVEDYKKRYEEEINKRT,4.48
16,ELRDVQDVVEDYKKRYEEEINKRT,4.68
17,ELLNVQDVVEDYKKRYEEEINKRT,2.37
18,ELYNVQDVVEDYKKRYEEEINKRT,3.86
19,ELMNVQDVVEDYKKRYEEEINKRT,4.14
20,ELQNVQDVVEDYKKRYEEEINKRT,4.13
21,ELWNVQDVVEDYKKRYEEEINKRT,3.47
22,ELTNVQDVVEDYKKRYEEEINKRT,3.35
23,ELPNVQDVVEDYKKRYEEEINKRT,4.1
24,ELFNVQDVVEDYKKRYEEEINKRT,4.32
25,ELENVQDVVEDYKKRYEEEINKRT,4.15
26,ELHNVQDVVEDYKKRYEEEINKRT,2.78

row,Variant,protein stability index
1,ELRNVQDQVEDYKKRYEEEINKRT,4.19
2,ELRNVQDHVEDYKKRYEEEINKRT,2.88
3,ELRNVQDMVEDYKKRYEEEINKRT,3.23
4,ELRNVQDAVEDYKKRYEEEINKRT,3.37
5,ELRNVQDLVEDYKKRYEEEINKRT,4.3
6,ELRNVQDFVEDYKKRYEEEINKRT,3.97
7,ELRNVQDPVEDYKKRYEEEINKRT,3.67
8,ELRNVQDGVEDYKKRYEEEINKRT,3.49
9,ELRNVQDDVEDYKKRYEEEINKRT,4.42
10,ELRNVQDSVEDYKKRYEEEINKRT,4.53
11,ELRNVQDWVEDYKKRYEEEINKRT,3.73
12,ELRNVQDNVEDYKKRYEEEINKRT,3.38
13,ELRNVQDKVEDYKKRYEEEINKRT,3.43
14,ELRNVQDCVEDYKKRYEEEINKRT,3.77
15,ELRNVQDIVEDYKKRYEEEINKRT,3.45
16,ELRNVQDEVEDYKKRYEEEINKRT,3.98
17,ELRNQQDVVEDYKKRYEEEINKRT,4.24
18,ELRNSQDVVEDYKKRYEEEINKRT,4.01
19,ELRNFQDVVEDYKKRYEEEINKRT,3.38
20,ELRNHQDVVEDYKKRYEEEINKRT,4.37
21,ELRNEQDVVEDYKKRYEEEINKRT,4.43
22,ELRNDQDVVEDYKKRYEEEINKRT,4.58
23,ELRNPQDVVEDYKKRYEEEINKRT,5.56
24,ELRNCQDVVEDYKKRYEEEINKRT,3.98
25,ELRNGQDVVEDYKKRYEEEINKRT,3.92
26,ELRNKQDVVEDYKKRYEEEINKRT,3.75

row,Variant,protein stability index
1,ELRNAQDVVEDYKKRYEEEINKRT,3.8
2,ELRNRQDVVEDYKKRYEEEINKRT,3.22
3,ELRNYQDVVEDYKKRYEEEINKRT,3.64
4,ELRNIQDVVEDYKKRYEEEINKRT,3.88
5,ELRNMQDVVEDYKKRYEEEINKRT,3.87
6,ELRNNQDVVEDYKKRYEEEINKRT,3.59
7,ELRNWQDVVEDYKKRYEEEINKRT,3.7
8,ELRNVQDVVIDYKKRYEEEINKRT,3.54
9,ELRNVQDVVADYKKRYEEEINKRT,3.17
10,ELRNVQDVVCDYKKRYEEEINKRT,3.62
11,ELRNVQDVVFDYKKRYEEEINKRT,4.36
12,ELRNVQDVVHDYKKRYEEEINKRT,3.71
13,EARNVQDVVEDYKKRYEEEINKRT,5.76
14,ECRNVQDVVEDYKKRYEEEINKRT,3.53
15,EDRNVQDVVEDYKKRYEEEINKRT,5.94
16,EGRNVQDVVEDYKKRYEEEINKRT,5.65
17,EPRNVQDVVEDYKKRYEEEINKRT,4.96
18,EMRNVQDVVEDYKKRYEEEINKRT,3.99
19,ENRNVQDVVEDYKKRYEEEINKRT,5.02
20,ESRNVQDVVEDYKKRYEEEINKRT,5.01
21,ELRNVQVVVEDYKKRYEEEINKRT,3.23
22,ELRNVQIVVEDYKKRYEEEINKRT,2.62
23,ELRNVQMVVEDYKKRYEEEINKRT,3.35
24,ELRNVQQVVEDYKKRYEEEINKRT,4.58
25,ELRNVQSVVEDYKKRYEEEINKRT,3.6
26,ELRNVQPVVEDYKKRYEEEINKRT,3.17

row,Variant,protein stability index
1,ELRNVQEVVEDYKKRYEEEINKRT,3.1
2,ELRNVQHVVEDYKKRYEEEINKRT,3.13
3,ELRNVQKVVEDYKKRYEEEINKRT,3.28
4,ELRNVQFVVEDYKKRYEEEINKRT,3.28
5,ELRNVQCVVEDYKKRYEEEINKRT,3.35
6,ELRNVQNVVEDYKKRYEEEINKRT,3.36
7,ELRNVQLVVEDYKKRYEEEINKRT,3.54
8,ELRNVQYVVEDYKKRYEEEINKRT,3.06
9,ELRNVQAVVEDYKKRYEEEINKRT,3.68
10,ELRNVCDVVEDYKKRYEEEINKRT,2.77
11,ELRNVTDVVEDYKKRYEEEINKRT,3.4
12,ELRNVYDVVEDYKKRYEEEINKRT,3.18
13,ELRNVSDVVEDYKKRYEEEINKRT,4.01
14,ELRNVMDVVEDYKKRYEEEINKRT,3.14
15,ELRNVPDVVEDYKKRYEEEINKRT,4.41
16,ELRNVGDVVEDYKKRYEEEINKRT,3.36
17,ELRNVNDVVEDYKKRYEEEINKRT,4.58
18,ELRNVADVVEDYKKRYEEEINKRT,3.85
19,ELRNVKDVVEDYKKRYEEEINKRT,3.75
20,ELRNVWDVVEDYKKRYEEEINKRT,3.41
21,ELRNVIDVVEDYKKRYEEEINKRT,2.54
22,ELRNVHDVVEDYKKRYEEEINKRT,3.15
23,ELRNVFDVVEDYKKRYEEEINKRT,4.1
24,FLRNVQDVVEDYKKRYEEEINKRT,4.14
25,SLRNVQDVVEDYKKRYEEEINKRT,4.07
26,LLRNVQDVVEDYKKRYEEEINKRT,3.9

row,Variant,protein stability index
1,HLRNVQDVVEDYKKRYEEEINKRT,4.05
2,KLRNVQDVVEDYKKRYEEEINKRT,3.95
3,NLRNVQDVVEDYKKRYEEEINKRT,3.49
4,CLRNVQDVVEDYKKRYEEEINKRT,2.23
5,QLRNVQDVVEDYKKRYEEEINKRT,4.03
6,GLRNVQDVVEDYKKRYEEEINKRT,2.72
7,ELRNVQDVIEDYKKRYEEEINKRT,3.74
8,ELRNVQDVWEDYKKRYEEEINKRT,4.36
9,ELRNVQDVHEDYKKRYEEEINKRT,4.4
10,ELRNVQDVKEDYKKRYEEEINKRT,3.48
11,ELRNVQDVNEDYKKRYEEEINKRT,3.24
12,ELRNVQDVQEDYKKRYEEEINKRT,3.66
13,ELRNVQDVTEDYKKRYEEEINKRT,3.73
14,ELRNVQDVREDYKKRYEEEINKRT,2.95
15,ELRNVQDVPEDYKKRYEEEINKRT,4.21
16,ELRNVQDVLEDYKKRYEEEINKRT,3.03
17,ELRNVQDVSEDYKKRYEEEINKRT,4.35
18,ELRNVQDVDEDYKKRYEEEINKRT,4.93
19,ELRNVQDVEEDYKKRYEEEINKRT,4.64
20,ELRNVQDVFEDYKKRYEEEINKRT,3.49
21,ELRNVQDVYEDYKKRYEEEINKRT,3.62
22,ELRNVQDVAEDYKKRYEEEINKRT,3.69
23,ELRNVQDVGEDYKKRYEEEINKRT,4.2
